Assays:
[1] = target: membrane-bound TNFalpha on stably transfected CHO cells (B-220 cells); test: FACS, anti-CD19-APC beads with TNFalpha-transfected CHO cells (Fig. 4b)
[2] = target: membrane-bound TNFalpha on stably transfected CHO cells (B-220 cells); test: FACS, beads with CHO-TNFα (B220) cells, Sample 2

- # Events (P4, CHO cells bound to anti-CD19 beads) [1]: 6 events
- % Parent (P4, CHO cells bound to anti-CD19 beads) [1]: 0.1%
- % Total (P4, CHO cells bound to anti-CD19 beads) [1]: 0.1%
- % bound beads [2]: 0.9%
Substance: APC labeled unrelated antibody (anti-CD 19) (coated on beads)

Reference: patent EP3964526A1
